# Results taken from US20180273587A1 (AILERON THERAPEUTICS, published 2018).
# Positions of bridges follow the written chain, without caps; N, C: chain ends. Non-standard residues stand in square brackets, D forms with d. hCha = N[C@@H](CCC1CCCCC1)C(=O)O; hPhe = N[C@@H](CCc1ccccc1)C(=O)O; R8 = C=CCCCCCC[C@@](C)(N)C(=O)O; αMeD = C[C@](N)(CC(=O)O)C(=O)O; S5 = C=CCCC[C@](C)(N)C(=O)O
# B1: SEQ ID NO: 1634 (peptide)
# peptide: Ac-WIAQALR[R8]IGDAFN[S5]YYA-NH2
# modifications: staple 8-15
# SMILES: CC[C@H](C)[C@H](NC(=O)[C@H](Cc1c[nH]c2ccccc12)NC(C)=O)C(=O)N[C@@H](C)C(=O)N[C@@H](CCC(N)=O)C(=O)N[C@@H](C)C(=O)N[C@@H](CC(C)C)C(=O)N[C@@H](CCCNC(=N)N)C(=O)N[C@]1(C)CCCCCCC=CCCC[C@@](C)(C(=O)N[C@@H](Cc2ccc(O)cc2)C(=O)N[C@@H](Cc2ccc(O)cc2)C(=O)N[C@@H](C)C(N)=O)NC(=O)[C@H](CC(N)=O)NC(=O)[C@H](Cc2ccccc2)NC(=O)[C@H](C)NC(=O)[C@H](CC(=O)O)NC(=O)CNC(=O)[C@H]([C@@H](C)CC)NC1=O
# notes: also called Ac-WIAQALR$r8IGDAFN$YYA-NH2
# B2: SEQ ID NO: 1709 (peptide)
# peptide: Ac-IWIAQALR[R8]IG[αMeD]AFN[S5]YYA-NH2
# modifications: staple 9-16
# SMILES: CC[C@H](C)[C@H](NC(C)=O)C(=O)N[C@@H](Cc1c[nH]c2ccccc12)C(=O)N[C@H](C(=O)N[C@@H](C)C(=O)N[C@@H](CCC(N)=O)C(=O)N[C@@H](C)C(=O)N[C@@H](CC(C)C)C(=O)N[C@@H](CCCNC(=N)N)C(=O)N[C@]1(C)CCCCCCC=CCCC[C@@](C)(C(=O)N[C@@H](Cc2ccc(O)cc2)C(=O)N[C@@H](Cc2ccc(O)cc2)C(=O)N[C@@H](C)C(N)=O)NC(=O)[C@H](CC(N)=O)NC(=O)[C@H](Cc2ccccc2)NC(=O)[C@H](C)NC(=O)[C@](C)(CC(=O)O)NC(=O)CNC(=O)[C@H]([C@@H](C)CC)NC1=O)[C@@H](C)CC
# B3: SEQ ID NO: 1656 (peptide)
# peptide: IWIAQALXAIGDQFNAYYA
# modifications: not fully specified; Ac- at N-terminus; -NH2 at C-terminus; $r8 at 9 and $ at 16 joined by all-carbon crosslinker; Cit (citrulline) at 8
# B4: SEQ ID NO: 1688 (peptide)
# peptide: Ac-IWIAQA[hhL]R[R8]IGDAFN[S5]YYA-NH2
# modifications: staple 9-16
# notes: also called Ac-IWIAQAhhLR$r8IGDAFN$YYA-NH2
# B5: SEQ ID NO: 1673 (peptide)
# peptide: Ac-IWIAQALA[R8]IGDAFN[S5]YYA-NH2
# modifications: staple 9-16
# SMILES: CC[C@H](C)[C@H](NC(C)=O)C(=O)N[C@@H](Cc1c[nH]c2ccccc12)C(=O)N[C@H](C(=O)N[C@@H](C)C(=O)N[C@@H](CCC(N)=O)C(=O)N[C@@H](C)C(=O)N[C@@H](CC(C)C)C(=O)N[C@@H](C)C(=O)N[C@]1(C)CCCCCCC=CCCC[C@@](C)(C(=O)N[C@@H](Cc2ccc(O)cc2)C(=O)N[C@@H](Cc2ccc(O)cc2)C(=O)N[C@@H](C)C(N)=O)NC(=O)[C@H](CC(N)=O)NC(=O)[C@H](Cc2ccccc2)NC(=O)[C@H](C)NC(=O)[C@H](CC(=O)O)NC(=O)CNC(=O)[C@H]([C@@H](C)CC)NC1=O)[C@@H](C)CC
# B6: SEQ ID NO: 1692 (peptide)
# peptide: Ac-IWIAQA[hPhe]R[R8]IGDAFN[S5]YYA-NH2
# modifications: staple 9-16
# SMILES: CC[C@H](C)[C@H](NC(C)=O)C(=O)N[C@@H](Cc1c[nH]c2ccccc12)C(=O)N[C@H](C(=O)N[C@@H](C)C(=O)N[C@@H](CCC(N)=O)C(=O)N[C@@H](C)C(=O)N[C@@H](CCc1ccccc1)C(=O)N[C@@H](CCCNC(=N)N)C(=O)N[C@]1(C)CCCCCCC=CCCC[C@@](C)(C(=O)N[C@@H](Cc2ccc(O)cc2)C(=O)N[C@@H](Cc2ccc(O)cc2)C(=O)N[C@@H](C)C(N)=O)NC(=O)[C@H](CC(N)=O)NC(=O)[C@H](Cc2ccccc2)NC(=O)[C@H](C)NC(=O)[C@H](CC(=O)O)NC(=O)CNC(=O)[C@H]([C@@H](C)CC)NC1=O)[C@@H](C)CC
# notes: also called Ac-IWIAQAhFR$r8IGDAFN$YYA-NH2
# B7: SEQ ID NO: 1690 (peptide)
# peptide: Ac-IWIAQA[hCha]R[R8]IGDAFN[S5]YYA-NH2
# modifications: staple 9-16
# SMILES: CC[C@H](C)[C@H](NC(C)=O)C(=O)N[C@@H](Cc1c[nH]c2ccccc12)C(=O)N[C@H](C(=O)N[C@@H](C)C(=O)N[C@@H](CCC(N)=O)C(=O)N[C@@H](C)C(=O)N[C@@H](CCC1CCCCC1)C(=O)N[C@@H](CCCNC(=N)N)C(=O)N[C@]1(C)CCCCCCC=CCCC[C@@](C)(C(=O)N[C@@H](Cc2ccc(O)cc2)C(=O)N[C@@H](Cc2ccc(O)cc2)C(=O)N[C@@H](C)C(N)=O)NC(=O)[C@H](CC(N)=O)NC(=O)[C@H](Cc2ccccc2)NC(=O)[C@H](C)NC(=O)[C@H](CC(=O)O)NC(=O)CNC(=O)[C@H]([C@@H](C)CC)NC1=O)[C@@H](C)CC
# notes: also called Ac-IWIAQAhChaR$r8IGDAFN$YYA-NH2
# B8: SEQ ID NO: 1635 (peptide)
# peptide: Ac-IAQALR[R8]IGDAFN[S5]YYA-NH2
# modifications: staple 7-14
# SMILES: CC[C@H](C)[C@H](NC(C)=O)C(=O)N[C@@H](C)C(=O)N[C@@H](CCC(N)=O)C(=O)N[C@@H](C)C(=O)N[C@@H](CC(C)C)C(=O)N[C@@H](CCCNC(=N)N)C(=O)N[C@]1(C)CCCCCCC=CCCC[C@@](C)(C(=O)N[C@@H](Cc2ccc(O)cc2)C(=O)N[C@@H](Cc2ccc(O)cc2)C(=O)N[C@@H](C)C(N)=O)NC(=O)[C@H](CC(N)=O)NC(=O)[C@H](Cc2ccccc2)NC(=O)[C@H](C)NC(=O)[C@H](CC(=O)O)NC(=O)CNC(=O)[C@H]([C@@H](C)CC)NC1=O
# notes: also called Ac-IAQALR$r8IGDAFN$YYA-NH2
# B9: SEQ ID NO: 1636 (peptide)
# peptide: Ac-IAAALR[R8]IGDAFN[S5]YYA-NH2
# modifications: staple 7-14
# SMILES: CC[C@H](C)[C@H](NC(C)=O)C(=O)N[C@@H](C)C(=O)N[C@@H](C)C(=O)N[C@@H](C)C(=O)N[C@@H](CC(C)C)C(=O)N[C@@H](CCCNC(=N)N)C(=O)N[C@]1(C)CCCCCCC=CCCC[C@@](C)(C(=O)N[C@@H](Cc2ccc(O)cc2)C(=O)N[C@@H](Cc2ccc(O)cc2)C(=O)N[C@@H](C)C(N)=O)NC(=O)[C@H](CC(N)=O)NC(=O)[C@H](Cc2ccccc2)NC(=O)[C@H](C)NC(=O)[C@H](CC(=O)O)NC(=O)CNC(=O)[C@H]([C@@H](C)CC)NC1=O
# notes: also called Ac-IAAALR$r8IGDAFN$YYA-NH2
# B10: SEQ ID NO: 1638 (peptide)
# peptide: Ac-IAQALR[R8]IADAFN[S5]YYA-NH2
# modifications: staple 7-14
# SMILES: CC[C@H](C)[C@H](NC(C)=O)C(=O)N[C@@H](C)C(=O)N[C@@H](CCC(N)=O)C(=O)N[C@@H](C)C(=O)N[C@@H](CC(C)C)C(=O)N[C@@H](CCCNC(=N)N)C(=O)N[C@]1(C)CCCCCCC=CCCC[C@@](C)(C(=O)N[C@@H](Cc2ccc(O)cc2)C(=O)N[C@@H](Cc2ccc(O)cc2)C(=O)N[C@@H](C)C(N)=O)NC(=O)[C@H](CC(N)=O)NC(=O)[C@H](Cc2ccccc2)NC(=O)[C@H](C)NC(=O)[C@H](CC(=O)O)NC(=O)[C@H](C)NC(=O)[C@H]([C@@H](C)CC)NC1=O
# notes: also called Ac-IAQALR$r8IADAFN$YYA-NH2
# B11: SEQ ID NO: 1631 (peptide)
# peptide: Ac-IAQALR[R8]IGDAFA[S5]YYA-NH2
# modifications: staple 7-14
# SMILES: CC[C@H](C)[C@H](NC(C)=O)C(=O)N[C@@H](C)C(=O)N[C@@H](CCC(N)=O)C(=O)N[C@@H](C)C(=O)N[C@@H](CC(C)C)C(=O)N[C@@H](CCCNC(=N)N)C(=O)N[C@]1(C)CCCCCCC=CCCC[C@@](C)(C(=O)N[C@@H](Cc2ccc(O)cc2)C(=O)N[C@@H](Cc2ccc(O)cc2)C(=O)N[C@@H](C)C(N)=O)NC(=O)[C@H](C)NC(=O)[C@H](Cc2ccccc2)NC(=O)[C@H](C)NC(=O)[C@H](CC(=O)O)NC(=O)CNC(=O)[C@H]([C@@H](C)CC)NC1=O
# notes: also called Ac-IAQALR$r8IGDAFA$YYA-NH2
# B12: SEQ ID NO: 1640 (peptide)
# peptide: Ac-IAQALR[R8]IGDAFN[S5]AYA-NH2
# modifications: staple 7-14
# SMILES: CC[C@H](C)[C@H](NC(C)=O)C(=O)N[C@@H](C)C(=O)N[C@@H](CCC(N)=O)C(=O)N[C@@H](C)C(=O)N[C@@H](CC(C)C)C(=O)N[C@@H](CCCNC(=N)N)C(=O)N[C@]1(C)CCCCCCC=CCCC[C@@](C)(C(=O)N[C@@H](C)C(=O)N[C@@H](Cc2ccc(O)cc2)C(=O)N[C@@H](C)C(N)=O)NC(=O)[C@H](CC(N)=O)NC(=O)[C@H](Cc2ccccc2)NC(=O)[C@H](C)NC(=O)[C@H](CC(=O)O)NC(=O)CNC(=O)[C@H]([C@@H](C)CC)NC1=O
# notes: also called Ac-IAQALR$r8IGDAFN$AYA-NH2
# B13: SEQ ID NO: 1629 (peptide)
# peptide: Ac-IWIAQELR[R8]IGDEFN[S5]YYARR-NH2
# modifications: staple 9-16
# SMILES: CC[C@H](C)[C@H](NC(C)=O)C(=O)N[C@@H](Cc1c[nH]c2ccccc12)C(=O)N[C@H](C(=O)N[C@@H](C)C(=O)N[C@@H](CCC(N)=O)C(=O)N[C@@H](CCC(=O)O)C(=O)N[C@@H](CC(C)C)C(=O)N[C@@H](CCCNC(=N)N)C(=O)N[C@]1(C)CCCCCCC=CCCC[C@@](C)(C(=O)N[C@@H](Cc2ccc(O)cc2)C(=O)N[C@@H](Cc2ccc(O)cc2)C(=O)N[C@@H](C)C(=O)N[C@@H](CCCNC(=N)N)C(=O)N[C@@H](CCCNC(=N)N)C(N)=O)NC(=O)[C@H](CC(N)=O)NC(=O)[C@H](Cc2ccccc2)NC(=O)[C@H](CCC(=O)O)NC(=O)[C@H](CC(=O)O)NC(=O)CNC(=O)[C@H]([C@@H](C)CC)NC1=O)[C@@H](C)CC
# B14: SEQ ID NO: 1630 (peptide)
# peptide: Ac-WIAQALR[R8]IGDAFN[S5]YYA-NH2
# modifications: staple 8-15
# SMILES: CC[C@H](C)[C@H](NC(=O)[C@H](Cc1c[nH]c2ccccc12)NC(C)=O)C(=O)N[C@@H](C)C(=O)N[C@@H](CCC(N)=O)C(=O)N[C@@H](C)C(=O)N[C@@H](CC(C)C)C(=O)N[C@@H](CCCNC(=N)N)C(=O)N[C@]1(C)CCCCCCC=CCCC[C@@](C)(C(=O)N[C@@H](Cc2ccc(O)cc2)C(=O)N[C@@H](Cc2ccc(O)cc2)C(=O)N[C@@H](C)C(N)=O)NC(=O)[C@H](CC(N)=O)NC(=O)[C@H](Cc2ccccc2)NC(=O)[C@H](C)NC(=O)[C@H](CC(=O)O)NC(=O)CNC(=O)[C@H]([C@@H](C)CC)NC1=O
# notes: as for B1
# Key:
# Test in all cases: Ki table, method not stated
# BCL-2 = BCL-2 (UniProt P10415 1-217, limits assumed)
# BCL-XL = BCL-XL (UniProt Q07817 1-209)
# MCL-1 = target: T1, MCL-1 (UniProt Q07820 172-327, limits assumed)
# T1 construct: also called Myeloid cell leukemia 1
# T1 sequence (Q07820 172-327 limits assumed): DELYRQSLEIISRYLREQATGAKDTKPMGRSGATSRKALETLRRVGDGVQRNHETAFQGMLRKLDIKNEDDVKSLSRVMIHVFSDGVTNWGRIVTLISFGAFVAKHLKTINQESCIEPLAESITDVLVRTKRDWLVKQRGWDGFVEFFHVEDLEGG
# Sequence of BCL-2 (P10415 1-217 limits assumed): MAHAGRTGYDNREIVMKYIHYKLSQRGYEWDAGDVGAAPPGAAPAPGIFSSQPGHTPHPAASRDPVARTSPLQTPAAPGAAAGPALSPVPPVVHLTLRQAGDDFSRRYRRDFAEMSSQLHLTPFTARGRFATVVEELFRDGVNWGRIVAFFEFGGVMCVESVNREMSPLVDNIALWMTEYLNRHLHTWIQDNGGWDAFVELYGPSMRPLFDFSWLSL
# Sequence of BCL-XL (Q07817 1-209): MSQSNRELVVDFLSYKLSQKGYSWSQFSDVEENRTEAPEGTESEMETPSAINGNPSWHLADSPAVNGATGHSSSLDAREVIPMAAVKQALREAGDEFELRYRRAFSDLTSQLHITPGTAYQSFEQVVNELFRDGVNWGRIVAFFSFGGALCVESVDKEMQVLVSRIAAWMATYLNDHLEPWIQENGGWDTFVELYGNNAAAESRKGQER
binder,measurement,setting,value
B1,Ki,BCL-2,410 nM
B2,Ki,BCL-XL,15.5 nM
B3,Ki,BCL-XL,28.8 nM
same,Ki,BCL-2,88.2 nM
B4,Ki,BCL-XL,136 nM
same,Ki,BCL-2,231 nM
B5,Ki,MCL-1,73.8 nM
same,Ki,BCL-XL,386 nM
B6,Ki,MCL-1,7.5 nM
B7,Ki,MCL-1,3.8 nM
B8,Ki,BCL-XL,309 nM
same,Ki,BCL-2,519 nM
B9,Ki,BCL-XL,256 nM
same,Ki,BCL-2,319 nM
B10,Ki,BCL-XL,243 nM
same,Ki,BCL-2,272 nM
B11,Ki,BCL-XL,374 nM
same,Ki,BCL-2,878 nM
B12,Ki,BCL-XL,472 nM
same,Ki,BCL-2,804 nM
B13,Ki,BCL-XL,9.2 nM
same,Ki,BCL-2,23.5 nM
B14,Ki,BCL-XL,213 nM
same,Ki,BCL-2,424 nM
